Tested on: Escherichia coli TOP10
Assay: shrunken log2 fold change of peptide-encoding DNA abundance (4.5 h post-induction vs induction); higher = less antimicrobial activity (less host growth inhibition)
Conditions: time post-induction: 4.5 h; library: site-saturation at positions 5, 18, 19, 20
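Note: peptides expressed intracellularly from a pBAD plasmid library in pooled LB shake-flask culture, induced with 0.3% L-arabinose, DNA abundance read by NGS, three biological replicates, DESeq2 with apeglm shrinkage.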

Sequence | shrunken log2 fold change
RRIRHRPPRLPRPRPRPREPPRP | 0.773
RRIRHRPPRLPRPRPRPRERPRP | 0.392
RRIRHRPPRLPRPRPRPREWPRP | 0.0987
RRIRHRPPRLPRPRPRPREYPRP | -0.0589
RRIRHRPPRLPRPRPRPRFTPRP | 0.007
RRIRHRPPRLPRPRPRPRGLPRP | 0.369
RRIRHRPPRLPRPRPRPRGQPRP | -0.0142
RRIRHRPPRLPRPRPRPRINPRP | -0.0802
RRIRHRPPRLPRPRPRPRKYPRP | -0.556
RRIRHRPPRLPRPRPRPRLAPRP | 0.206
RRIRHRPPRLPRPRPRPRLRPRP | 0.207
RRIRHRPPRLPRPRPRPRNVPRP | -0.00885
RRIRHRPPRLPRPRPRPRPQPRP | 0.416
RRIRHRPPRLPRPRPRPRPTPRP | 0.759
RRIRHRPPRLPRPRPRPRQYPRP | -0.185
RRIRHRPPRLPRPRPRPRRGPRP | 0.343
RRIRHRPPRLPRPRPRPRSDPRP | -0.123
RRIRHRPPRLPRPRPRPRSVPRP | 0.0714
RRIRHRPPRLPRPRPRPRVCPRP | 0.318
RRIRHRPPRLPRPRPRPRVPPRP | -0.134
RRIRHRPPRLPRPRPRPRWIPRP | -0.108
RRIRHRPPRLPRPRPRPRWNPRP | -0.065

Sequence | shrunken log2 fold change
RRIRHRPPRLPRPRPRPRWYPRP | -0.137
RRIRHRPPRLPRPRPRPRYRPRP | -0.109
RRIRHRPPRLPRPRPRPSAYPRP | -0.562
RRIRHRPPRLPRPRPRPSDPPRP | -0.0545
RRIRHRPPRLPRPRPRPSEPPRP | -0.206
RRIRHRPPRLPRPRPRPSFLPRP | -0.729
RRIRHRPPRLPRPRPRPSGLPRP | 0.0123
RRIRHRPPRLPRPRPRPSGQPRP | -0.17
RRIRHRPPRLPRPRPRPSIKPRP | -0.501
RRIRHRPPRLPRPRPRPSKKPRP | 0.0943
RRIRHRPPRLPRPRPRPSMPPRP | -0.0929
RRIRHRPPRLPRPRPRPSNGPRP | -0.605
RRIRHRPPRLPRPRPRPSNMPRP | -1.48
RRIRHRPPRLPRPRPRPSPFPRP | -0.199
RRIRHRPPRLPRPRPRPSPGPRP | -0.051
RRIRHRPPRLPRPRPRPSPVPRP | -0.0462
RRIRHRPPRLPRPRPRPSQNPRP | -0.0324
RRIRHRPPRLPRPRPRPSRKPRP | 0.094
RRIRHRPPRLPRPRPRPSTVPRP | 0.00256
RRIRHRPPRLPRPRPRPSVPPRP | -0.0518
RRIRHRPPRLPRPRPRPSVQPRP | -0.266
RRIRHRPPRLPRPRPRPSVRPRP | -0.158

Sequence | shrunken log2 fold change
RRIRHRPPRLPRPRPRPSVTPRP | -0.453
RRIRHRPPRLPRPRPRPSWAPRP | 0.19
RRIRHRPPRLPRPRPRPSWNPRP | -0.264
RRIRHRPPRLPRPRPRPSYNPRP | -0.86
RRIRHRPPRLPRPRPRPSYWPRP | 0.0148
RRIRHRPPRLPRPRPRPTANPRP | 0.0557
RRIRHRPPRLPRPRPRPTCDPRP | -0.011
RRIRHRPPRLPRPRPRPTCMPRP | -0.184
RRIRHRPPRLPRPRPRPTCPPRP | 0.0464
RRIRHRPPRLPRPRPRPTDSPRP | 0.0894
RRIRHRPPRLPRPRPRPTEAPRP | -0.00626
RRIRHRPPRLPRPRPRPTEHPRP | -0.243
RRIRHRPPRLPRPRPRPTFLPRP | -0.0769
RRIRHRPPRLPRPRPRPTGDPRP | 0.208
RRIRHRPPRLPRPRPRPTGHPRP | 0.173
RRIRHRPPRLPRPRPRPTHFPRP | 0.176
RRIRHRPPRLPRPRPRPTICPRP | -0.41
RRIRHRPPRLPRPRPRPTIPPRP | -0.028
RRIRHRPPRLPRPRPRPTKQPRP | -0.0343
RRIRHRPPRLPRPRPRPTLQPRP | -0.0103
RRIRHRPPRLPRPRPRPTLTPRP | -0.188
RRIRHRPPRLPRPRPRPTLVPRP | -0.233

Sequence | shrunken log2 fold change
RRIRHRPPRLPRPRPRPTMPPRP | -0.00312
RRIRHRPPRLPRPRPRPTPDPRP | 0.134
RRIRHRPPRLPRPRPRPTPQPRP | 0.541
RRIRHRPPRLPRPRPRPTPWPRP | 0.692
RRIRHRPPRLPRPRPRPTREPRP | 0.0175
RRIRHRPPRLPRPRPRPTTCPRP | -0.278
RRIRHRPPRLPRPRPRPTVIPRP | 0.0211
RRIRHRPPRLPRPRPRPTVRPRP | 0.165
RRIRHRPPRLPRPRPRPTWWPRP | 0.368
RRIRHRPPRLPRPRPRPTWYPRP | -0.674
RRIRHRPPRLPRPRPRPTYKPRP | -0.333
RRIRHRPPRLPRPRPRPVAAPRP | 0.202
RRIRHRPPRLPRPRPRPVALPRP | -0.112
RRIRHRPPRLPRPRPRPVATPRP | -0.079
RRIRHRPPRLPRPRPRPVCKPRP | -0.14
RRIRHRPPRLPRPRPRPVDAPRP | 0.131
RRIRHRPPRLPRPRPRPVDDPRP | -0.221
RRIRHRPPRLPRPRPRPVHLPRP | -0.0199
RRIRHRPPRLPRPRPRPVIDPRP | -0.395
RRIRHRPPRLPRPRPRPVILPRP | -1.12
RRIRHRPPRLPRPRPRPVIRPRP | 0.00766
RRIRHRPPRLPRPRPRPVITPRP | 0.0477

Sequence | shrunken log2 fold change
RRIRHRPPRLPRPRPRPVKIPRP | -0.0352
RRIRHRPPRLPRPRPRPVKPPRP | 0.0296
RRIRHRPPRLPRPRPRPVMMPRP | -0.123
RRIRHRPPRLPRPRPRPVNNPRP | -1.17
RRIRHRPPRLPRPRPRPVPDPRP | -0.526
RRIRHRPPRLPRPRPRPVPEPRP | 0.143
RRIRHRPPRLPRPRPRPVPWPRP | 0.0803
RRIRHRPPRLPRPRPRPVQHPRP | -0.0639
RRIRHRPPRLPRPRPRPVTFPRP | 0.00537
RRIRHRPPRLPRPRPRPVWDPRP | -0.0821
RRIRHRPPRLPRPRPRPVWNPRP | -0.402
RRIRHRPPRLPRPRPRPWDNPRP | 0.0451
RRIRHRPPRLPRPRPRPWEPPRP | -0.0767
RRIRHRPPRLPRPRPRPWGPPRP | -0.0071
RRIRHRPPRLPRPRPRPWGTPRP | -0.44
RRIRHRPPRLPRPRPRPWHDPRP | -0.00088
RRIRHRPPRLPRPRPRPWIDPRP | -0.00448
RRIRHRPPRLPRPRPRPWIGPRP | -0.0136
RRIRHRPPRLPRPRPRPWKLPRP | -0.185
RRIRHRPPRLPRPRPRPWLAPRP | -0.26
RRIRHRPPRLPRPRPRPWLCPRP | 0.111

From the supplement of paper PMC9112550, “Optimization of the antimicrobial peptide Bac7 by deep mutational scanning” (BMC Biology, 2022)
